Consider 3 substances from PMC7580981.

pKd: −log10 of the molar value.

The target in this experiment is IBV polymerase trimeric complex (Pol3): PA-His, PB1, PB2 (influenza B virus). As to the kind of experiment: SPR; Biacore T200; […]; running buffer HBS-EP+; 1:1 fit model. A general note: Surface plasmon resonance follows binding to a sensor surface in real time, without labels.

Chain of human ANP32A, purified (GST cleaved) (P39687 whole entry): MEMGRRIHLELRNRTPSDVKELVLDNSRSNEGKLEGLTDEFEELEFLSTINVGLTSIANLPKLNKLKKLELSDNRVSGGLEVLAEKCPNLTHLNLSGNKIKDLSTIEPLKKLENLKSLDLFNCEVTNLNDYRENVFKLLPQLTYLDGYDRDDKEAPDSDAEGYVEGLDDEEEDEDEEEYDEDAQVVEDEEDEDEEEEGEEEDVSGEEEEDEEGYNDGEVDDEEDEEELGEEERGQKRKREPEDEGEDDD

The pKd is −log10 of the Kd, conventionally taken in molar units. With “human ANP32A with the 33-amino-acid insert, purified (GST cleaved)”, the pKd is 6.99.
Turning to “chicken ANP32A, purified (GST cleaved) (natural protein)”, the KD of chANP32A relative to that of huANP32A (fold) is 3 fold.
Consider “human ANP32A, purified (GST cleaved) (from UniProt P39687 1-249) (natural protein)”, for which the negative logarithm of the Kd (pKd) is 7.27; the ka relative to chANP32A and huANP32A+33 (fold) came to 2 fold.
